In paper PMC4204887:

Tests used:
[1] = molecular target: Val122Ile transthyretin (V122I TTR) (human) (UniProt P02766); assay: native gel or EMSA
[2] = molecular target: wild-type transthyretin (WT TTR) (human) (UniProt P02766); assay: native gel or EMSA

tandem flag-tagged Val122Ile transthyretin (FT2·V122I TTR) (from UniProt P02766 21-147) (natural protein)
t50 of formation of the 2 FT2/2 TTR heterotetramer [1]: 2.84 h

tandem flag-tagged wild-type transthyretin (FT2·WT TTR) (from UniProt P02766 21-147) (natural protein)
Kex (subunit exchange rate constant) [2]: 0.28 h⁻¹ | t50 of formation of the 2 FT2/2 TTR heterotetramer [2]: 12.5 h
